Laboratory results from US20210130455A1 (KEIO UNIVERSITY, published 2021).

T1: peptide used for immunization (SEQ ID NO:1), ATYPSGHLDM (human and mouse (identical sequence))
T1 construct: Synthetic peptide; also called immunogen peptide; synthetic peptide
T1 peptide: ATYPSGHLDM

T2: mouse AQP3 in cell lysate of HEK293T cells overexpressing mouse AQP3 and a myc-biotinylated tag (mouse, UniProt Q8R2N1 1-292, biotinylated tag (site not given))
T2 construct: also called AQP3 (cell lysate); not shown: myc-biotinylated tag
T2 sequence (looked up): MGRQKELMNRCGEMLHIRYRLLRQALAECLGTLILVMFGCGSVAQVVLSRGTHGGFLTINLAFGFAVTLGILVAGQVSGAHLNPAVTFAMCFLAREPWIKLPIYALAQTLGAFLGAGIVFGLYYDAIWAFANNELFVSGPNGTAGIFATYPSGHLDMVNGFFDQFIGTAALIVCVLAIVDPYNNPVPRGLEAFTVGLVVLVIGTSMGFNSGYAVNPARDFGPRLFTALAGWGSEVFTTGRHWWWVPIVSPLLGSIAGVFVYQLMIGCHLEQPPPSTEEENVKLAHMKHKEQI

T3: mouse AQP3 on the cell surface (PAM212 cells, mouse macrophage cells, HEK293 cells stably overexpressing … (mouse, UniProt Q8R2N1 1-292))
T3 construct: whole, on cells; Membrane water channel; also called mouse aquaporin 3
T3 sequence (looked up): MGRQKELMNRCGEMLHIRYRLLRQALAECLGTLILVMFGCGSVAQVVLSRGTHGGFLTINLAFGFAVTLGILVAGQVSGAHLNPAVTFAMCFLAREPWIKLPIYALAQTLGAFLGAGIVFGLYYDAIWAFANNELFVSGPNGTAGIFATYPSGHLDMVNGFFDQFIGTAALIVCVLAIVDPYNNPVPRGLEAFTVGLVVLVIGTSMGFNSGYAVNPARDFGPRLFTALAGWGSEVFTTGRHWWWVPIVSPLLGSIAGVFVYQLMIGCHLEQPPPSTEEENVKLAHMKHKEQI

T4: human AQP3 on the cell surface (HaCaT cells, A431 cells, HEK293 cells stably overexpressing human AQP3) (human, UniProt Q92482 1-292)
T4 construct: whole, on cells; Membrane water channel; also called human aquaporin 3
T4 sequence (looked up): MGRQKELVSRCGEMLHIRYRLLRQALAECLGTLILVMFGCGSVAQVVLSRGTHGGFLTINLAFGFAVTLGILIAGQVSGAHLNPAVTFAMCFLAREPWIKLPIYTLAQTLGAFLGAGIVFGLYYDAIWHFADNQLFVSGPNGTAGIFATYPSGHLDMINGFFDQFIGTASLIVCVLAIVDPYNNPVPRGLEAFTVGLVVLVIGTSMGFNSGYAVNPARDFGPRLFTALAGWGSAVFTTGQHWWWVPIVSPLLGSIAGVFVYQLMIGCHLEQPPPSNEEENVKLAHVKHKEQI

B1: antibody E (antibody, mouse IgG2a, kappa, V domains shown)
VH: EVKLLESGAELVRPGASVTLSCKASGYTFTDYEMHWVKQTPVHGLEWIGGIDPESGGTGYNQKFKGKAILTADKSSSTAYMELRSLTSEDSAVYFCTRSGYYGSPLLDYWGQGTTLTVSS
VL: QIVLSQSPAIMSASLGERVTMTCTASSSVSSSYLHWYQQKPGSSPKLWIYSTSNLASGVPARFSGSGSGTSYSLTISSMEAEDAATYYCHQYHRSPPTFGAGTKLEIKR
notes: also called anti AQP3 mAb E
B2: antibody K (antibody, mouse IgG2a, kappa, V domains shown)
VH: QVQLKQSGAELVRPGTSVKVSCKASGYAFTNYLIEWVKQRPGQGLEWIGVINPGSGGTNYNEKFKGKATLTADKSSSTAYMQLSSLTSEDSAVYFCARWGFYYAMDYWGQGTSVTVSS
VL: DIVMTQSPSSLSASLGERVSLTCRASQEISGYLSWLQQKPDGTIKRLIYAASTLDSGVPKRFSGSRSGSDYSLTISSLESEDFADYYCLQYASYPLTFGAGTKLEIKR
notes: also called anti AQP3 mAb K
B3: antibody F (antibody, mouse IgG2a, kappa, V domains shown)
VH: QVQLKESGPELVKPGASVKISCKASGYTFTDYYINWVKQRPGQGLEWIGWIFPGSGSTYYNEKFKGKATLTVDKSSSTAYMLLSSLTSEDSAVYFCADYGSSYRYFDVWGAGTTVTVSS
VL: DIVMTQSPAILSASPGEKVTMTCRASSSVSYMHWYQQKPGSSPKPWIYATSYLASGVPARFSGSGSGTSYSLTIGRVEAEDAATYYCQQWSSNPLTFGAGTKLELKR
notes: also called anti AQP3 mAb F
B4: antibody G (antibody, mouse IgG2a, kappa, V domains shown)
VH: QVQLKQSGAELVRPGASVTLSCKASGYTFTDYEMHWVKQTPVHGLEWIGGIDPETGGTAYNQKFKGKAILTADKSSSTAYMELRSLTSEDSAVYYCTRWGAITSFVALRGFAYWGQGTLVTVSS
VL: DIQMTQSPSSLSVSAGEKVTMSCKSSQSLLNSGNQKNYLAWYQQKPGQPPKLLIYGASTRESGVPDRFTGSGSGTDFTLTISSVQAEDLAVYYCQNDHSYPPTFGAGTKLELKR
notes: also called anti AQP3 mAb G
B5: antibody D (antibody, mouse IgG2a, kappa, V domains shown)
VH: EVQLQQSGAELVRPGASVTLSCKASGYTFTDYEMHWVQQTPVHGLEWIGGIDPETGGTGYNQKFKGKAILTADKSSSTAYMELRSLTSEDSAVYFCTRHGSYAMDYWGQGTSVTVSS
VL: DIVMTQSPKFMSTSVGDRVSITCKASQDVSTAVAWYQQKPGQSPKLLIYWASTRHTGVPDRFTGSGSGTDYTLTISSVQAEDLALYYCQQHYSTPPTFGGGTRLEIKR
notes: also called anti AQP3 mAb D
B6: antibody A (antibody, mouse IgG2a, kappa, V domains shown)
VH: QVQLQQPGAELVRPGASVTLSCKASGYTFTDYEMHWVKQTPVHGLEWIGGVDPETGGTGYNQKFRGKAILTADKSSSTAYMELRSLTSEDSAVYYCARHGGSFYAMDYWGQGTSVTVSS
VL: DIVMTQSPKFMSTSVGDRVSITCKASQDVSTAVAWYQQKPGQSPKLLIYWASTRHTGVPDRFTGSGSGTDYTLTISSVQAEDLALYYCQQHYSTPPTFGGGTKLELKR
notes: also called anti AQP3 mAb A
B7: antibody B (antibody, mouse IgG2a, kappa, V domains shown)
VH: EVQLVESGGDLVKPGGSLKLSCAASGFTFSSYGMSWVRQTPDKRLEWVATISRGSIYTYYPDSVKGRFTISRDNAKNTLYLQMSSLKSEDTAMYYCARLSLYDYDGARYTMDYWGQGTSVTVSS
VL: DIVMTQSPKFMSTSVGDRVSITCKASQDVGTAVAWYQQKPGQSPKLLIYWASTRHTGVPDRFTGSGSGTDFTLTISNVQSEDLADYFCQQYSSYHTFGAGTKLELKR
notes: also called anti AQP3 mAb B
B8: antibody H (antibody, mouse IgG2a, kappa, V domains shown)
VH: EVKLVESGGDLVKPGGSLKLSCAASGFTFSSYGMSWVRQTPDKRLEWVATISRRSIYTYYPDSVQGRFTISRDNAKNTLYLQMSSLKSEDTAMYYCARLSLYDYDGARYTMDYWGQGTSVTVSS
VL: DIKMTQSPKFMSTSVGDRVSITCKASQDVGTAVAWYQQKPGQSPKLLIYWASTRHTGVPDRFTGSGSGTDFTLTISNVQSEDLADYFCQQYSSYHTFGAGTKLEIKR
notes: also called anti AQP3 mAb H
B9: antibody C (antibody, mouse IgG2a, kappa, V domains shown)
VH: QVQLKQSGAELARPGASVKLSCKASGYNFKSYGISWVKQRTGQGLEWIGEIYPGSGNTYYNEKLKGKATLTADKSSSTAYMELRSLTSEDSAVYFCARTYGYDSFPWFAYWGQGTLVTVSS
VL: DIVMTQAAPSVPVTPGESVSISCRSSKSLLHSNGNTYLYWFLQRPGQSPQLLIYRVSNLASGVPDRFSGSGSGTAFTLRISRVEAEDEGVYYCMQHLEYPFTFGAGTKLEIKR
notes: also called anti AQP3 mAb C
B10: antibody J (antibody, mouse IgG2a, kappa, V domains shown)
VH: QVHLQQSGTELVKPGASVKLSCEASGYTFTSYWMHWVKQRPGQGLEWIGNINPSNGGTNYNEKFKSKATLTVDKSSSTAYMQLSSLTSEDSAVYYCARGGIYYGNYDYYAMDYWGQGTSVTVSS
VL: DIVMTQAAPSVPVTPGESVSISCRSSKSLLHSNGNTYLYWFLQRPGQSPQLLIYRVSNLASGVPDRFSGSGSGTAFTLRISRVEAEDVGVYYCMQHLEYPFTFGGGTKLEIKR
notes: also called anti AQP3 mAb J; Ab

Key:
[1] = biological target: T1, peptide used for immunization (SEQ ID …); assay: ELISA on the immunogen peptide SEQ ID NO:1
Procedure: Binding of antibodies A, B, C, D, E, F, G, H, J, and K to the peptide used for immunization (SEQ ID NO:1) was tested in an ELISA assay. […] Thus, antibodies A, D, and F may therefore bind to AQP3 at a different epitope.

[2] = biological target: T2, mouse AQP3 in cell lysate of HEK293T …; assay: ELISA on lysate of HEK293T cells overexpressing mouse AQP3 and a myc-biotinylated tag
Source text: Cell lysate from HEK293T cells overexpressing mouse AQP3 and a myc-biotinylated tag was used in an ELISA assay to measure the binding of antibodies A, B, C, D, E, F, G, H, J, and K to AQP3. Cell lysate from HEK293T cells overexpressing the myc-biotinylated tag but not AQP3 was used as control.

[3] = biological target: T3, mouse AQP3 on the cell surface (PAM212 …); assay: fluorescence of a labelled secondary antibody on PAM212 cells; antibody at 10 µg/mL
Procedure: (§1) PAM212 and macrophage cells were reacted with each anti AQP3 antibody (0.1, 1, or 10 μg/mL) at 4° C. for 1 hour. After washing the cells, a fluorescent-labeled anti mouse secondary antibody was added and the reaction was allowed to occur additionally for 1 hour (4° C.). By measuring the fluorescence intensity, the binding property of each anti AQP3 antibody to cells was obtained.
The assay was also performed using PAM212 cells and antibodies A, B, C, D, E, F, G, H, and J at a concentration of 10 μg/mL. Binding of antibodies C, D, E, G, and J to PAM212 cells was statistically significant.

[4] = biological target: T4, human AQP3 on the cell surface (HaCaT …); assay: fluorescence of a labelled secondary antibody on HaCaT cells; antibody at 10 µg/mL
Procedure: as §1
The assay was also performed using HaCaT cells and antibodies A, B, C, D, E, F, G, H, and J at a concentration of 10 μg/mL. Binding of antibodies C, D, E, H, and J to HaCaT cells was statistically significant. The results obtained by performing a FACS assay using HaCaT, which are human epithelial cells, and antibody G, antibody H, or antibody J are shown in FIG. 6A-6C, respectively. HaCaT cells were treated with Cell Dissociation Buffer for 30 minutes at 37° C., and then dislodged and collected. Then, the cells were reacted with 10 μg/mL anti AQP3 antibody at 4° C. for 1 hour. After washing the cells, a fluorescent-labeled anti mouse secondary antibody was added and the reaction was allowed to occur additionally for 1 hour (4° C.). Then, by using a flow cytometer, fluorescence intensity was measured (FIG. 6A to FIG. 6C). FIG. 6A represents the result of a case in which antibody G was used, FIG. 6B represents the result of a case in which antibody H was used, and FIG. 6C represents the result of a case in which antibody J was used. […] The histogram expressed with bold line represents a case in which the anti AQP3 antibody was used while the histogram expressed with thin gray line represents a case as a control in which the anti AQP3 antibody was not used (addition of non-specific IgG). […] Ratio (%) of the cells included in this range (=cells showing positive staining by anti AQP3 antibody) is also shown in the drawing.

[5] = biological target: T4, human AQP3 on the cell surface (HaCaT …); assay: flow cytometry on HaCaT cells; antibody at 10 µg/mL
Procedure: The assay was also performed using HaCaT cells and antibodies A, B, C, D, E, F, G, H, and J at a concentration of 10 μg/mL. Binding of antibodies C, D, E, H, and J to HaCaT cells was statistically significant. The results obtained by performing a FACS assay using HaCaT, which are human epithelial cells, and antibody G, antibody H, or antibody J are shown in FIG. 6A-6C, respectively. HaCaT cells were treated with Cell Dissociation Buffer for 30 minutes at 37° C., and then dislodged and collected. Then, the cells were reacted with 10 μg/mL anti AQP3 antibody at 4° C. for 1 hour. After washing the cells, a fluorescent-labeled anti mouse secondary antibody was added and the reaction was allowed to occur additionally for 1 hour (4° C.). Then, by using a flow cytometer, fluorescence intensity was measured (FIG. 6A to FIG. 6C). FIG. 6A represents the result of a case in which antibody G was used, FIG. 6B represents the result of a case in which antibody H was used, and FIG. 6C represents the result of a case in which antibody J was used. […] The histogram expressed with bold line represents a case in which the anti AQP3 antibody was used while the histogram expressed with thin gray line represents a case as a control in which the anti AQP3 antibody was not used (addition of non-specific IgG). […]

[6] = biological target: T3, mouse AQP3 on the cell surface (PAM212 …); assay: FACS on HEK293 cells stably overexpressing mouse AQP3; antibody at 10 µg/mL
Procedure: A FACS assay was also performed using HEK293 cells stably overexpressing mouse AQP3. Cells were incubated with antibody E, H, J, or negative control IgG at a concentration of 10 μg/mL for one hour and then sorted by FACS. Separately, HEK293 cells stably overexpressing human AQP3 were incubated with antibody E at a concentration of 10 μg/mL for one hour and then sorted by FACS.

[7] = biological target: T3, mouse AQP3 on the cell surface (PAM212 …); assay: fluorescence of a labelled secondary antibody on mouse macrophage cells; antibody at 0.1, 1 and 10 µg/mL
Procedure: as §1
The testing was also carried out using solvent (Veh) or a non-specific IgG (IgG) controls. In FIG. 4, the vertical axis represents fluorescence intensity, and the mean fluorescence intensity of each sample is represented by bar height together with standard error.

| Binder | binding result [1] | binding result [2] | binding result [3] | binding result [4] | binding result [5] | binding result [6] | binding result [7] |
| --- | --- | --- | --- | --- | --- | --- | --- |
| B1 | binds | binds | binds | binds |  |  |  |
| B2 | binds | binds |  |  |  |  |  |
| B3 |  | binds |  |  |  |  |  |
| B4 | binds | binds | binds |  | binds |  |  |
| B5 |  | binds | binds | binds |  |  |  |
| B6 |  | binds |  |  |  |  |  |
| B7 | binds | binds |  |  |  |  |  |
| B8 | binds | binds |  | binds |  | binds |  |
| B9 | binds | binds | binds | binds |  |  |  |
| B10 | binds | binds |  | binds |  |  | binds |
